Stoichiometry N data for one substance are collected here from article PMC9628201.

The experiment concerns the target SARS-CoV-2 WA.1 Spike-6P trimer (SARS-CoV-2 (WA.1)). The experiment in a line: cryo-EM structure.

SARS-CoV-2 WA.1 Spike-6P trimer gave a stoichiometry N of 3.

By stoichiometry N is commonly meant the number of molecules, sites or subunits per partner or assembly.
